The values below come from patent publication US20200165344A1 (DRAGONFLY THERAPEUTICS, published 2020).

Where a chain is given by its changes, count along the chain named.

Test [1] deals with T1, recombinant human NKG2D-Fc (human, UniProt P26718 73-216).
T1 construct: extracellular domain; also called human NKG2D-Fc fusion protein; NKG2D-Fc-biotin; not shown: human IgG1 Fc domain
T1 sequence (looked up): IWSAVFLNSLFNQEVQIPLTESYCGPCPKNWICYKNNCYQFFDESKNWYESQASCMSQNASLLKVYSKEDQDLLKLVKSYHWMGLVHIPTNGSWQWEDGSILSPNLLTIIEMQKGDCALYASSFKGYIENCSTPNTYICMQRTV
Description: ELISA, NKG2D-Fc coated.

Test [2] concerns the target T2, recombinant mouse NKG2D-Fc (mouse; human, UniProt O54709 90-232).
T2 construct: extracellular domain; also called mouse NKG2D-Fc fusion protein; Mouse NKG2D-Fc-biotin; not shown: human IgG1 Fc domain
T2 sequence (looked up): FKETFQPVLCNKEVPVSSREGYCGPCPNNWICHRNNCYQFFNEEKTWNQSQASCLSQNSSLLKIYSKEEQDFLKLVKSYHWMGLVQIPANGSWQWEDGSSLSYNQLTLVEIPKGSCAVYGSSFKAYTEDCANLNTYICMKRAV
As to the kind of experiment: ELISA, NKG2D-Fc coated. For orientation: ELISA stands for enzyme-linked immunosorbent assay.

Test [3] addresses T3, recombinant cynomolgus NKG2D-Fc (cynomolgus; human, UniProt P61252 73-216).
T3 construct: extracellular domain; also called cynomolgus NKG2D-Fc fusion protein; not shown: human IgG1 Fc domain
T3 sequence (looked up): T1 sequence (looked up) with D43N, T133I
Description: ELISA, NKG2D-Fc coated.

Test [4] addresses T4, FLT3 expressed on human AML cell lines Molm-13 and EOL-1 (human, UniProt P36888 27-993).
T4 construct: the FLT3 in the assay is that carried by the cell lines themselves; also called FMS-like tyrosine kinase-3
Description: flow cytometry on Molm-13 and EOL-1 cells. On the technique in general: A flow cytometer gives signals particle by particle.
Description: Human AML cell lines (Molm-13 and EOL-1) expressing FLT3 were used to assay the binding of FLT3-targeting TriNKETs to the tumor-associated antigen. TriNKETs were incubated with the cells, and the binding was detected using fluorophore-conjugated anti-human IgG secondary antibodies. Cells were analyzed by flow cytometry and mean fluorescence intensity (MFI) was normalized to secondary antibody controls to obtain fold over background (FOB) values.

B1: ADI-29378 (antibody, V domains shown)
VH: QVQLVQSGAEVKKPGASVKVSCKASGYTFTSYYMHWVRQAPGQGLEWMGIINPSGGSTSYAQKFQGRVTMTRDTSTSTVYMELSSLRSEDTAVYYCAREGAGFAYGMDYYYMDVWGKGTTVTVSS
VL: EIVLTQSPATLSLSPGERATLSCRASQSVSSYLAWYQQKPGQAPRLLIYDASNRATGIPARFSGSGSGTDFTLTISSLEPEDFAVYYCQQSDNWPFTFGGGTKVEIK
notes: also called E78
Consider B1, for which the binding result in test [1], in test [2] and in test [3] was “binds” in each case.

B2: A49-TriNKET-FLT3-IMCEB10 (bispecific antibody, V domains shown)
VH 1: EVQLVESGGGLVKPGGSLRLSCAASGFTFSSYSMNWVRQAPGKGLEWVSSISSSSSYIYYADSVKGRFTISRDNAKNSLYLQMNSLRAEDTAVYYCARGAPMGAAAGWFDPWGQGTLVTVSS
VL 1: DIQMTQSPSSVSASVGDRVTITCRASQGISSWLAWYQQKPGKAPKLLIYAASSLQSGVPSRFSGSGSGTDFTLTISSLQPEDFATYYCQQGVSFPRTFGGGTKVEIK
VH 2: EVQLVQSGAEVKKPGASVKVSCKASGYTFTSYYMHWVRQAPGQGLEWMGIINPSGGSTSYAQKFQGRVTMTRDTSTSTVYMELSSLRSEDTAVYYCARGVGAHDAFDIWGQGTTVTVSSA
VL 2: DVVMTQSPLSLPVTPGEPASISCRSSQSLLHSNGNNYLDWYLQKPGQSPQLLIYLGSNRASGVPDRFSGSGSDTDFTLQISRVEAEDVGVYYCMQGTHPAISFGQGTRLEIKR
notes: also called A49-TriNKET-IMCEB10
For B2, in test [4], the binding result is given as “binds”.

B3: ADI-27749 (antibody, V domains shown)
VH: B2 VH 1
VL: B2 VL 1
notes: also called A49
Regarding B3, the binding result in test [1], in test [2] and in test [3] was “binds” in each case.

B4: A49-TriNKET-FLT3-4G8 (bispecific antibody, V domains shown)
VH 1: B2 VH 1
VL 1: B2 VL 1
VH 2: QVQLQQPGAELVKPGASLKLSCKSSGYTFTSYWMHWVRQRPGHGLEWIGEIDPSDSYKDYNQKFKDKATLTVDRSSNTAYMHLSSLTSDDSAVYYCARAITTTPFDFWGQGTTLTVSS
VL 2: DIVLTQSPATLSVTPGDSVSLSCRASQSISNNLHWYQQKSHESPRLLIKYASQSISGIPSRFSGSGSGTDFTLSINSVETEDFGVYFCQQSNTWPYTFGGGTKLEIKR
notes: also called A49-TriNKET-4G8
For B4, the binding result in test [4] is given as “binds”.

B5: ADI-29424 (antibody, V domains shown)
VH: QVQLQQWGAGLLKPSETLSLTCAVYGGSFSGYYWSWIRQPPGKGLEWIGEIDHSGSTNYNPSLKSRVTISVDTSKNQFSLKLSSVTAADTAVYYCARARGPWSFDPWGQGTLVTVSS
VL: DIQMTQSPSTLSASVGDRVTITCRASQSISSWLAWYQQKPGKAPKLLIYKASSLESGVPSRFSGSGSGTEFTLTISSLQPDDFATYYCQQYDSFITFGGGTKVEIK
Turning to B5, the binding result in test [1], in test [2] and in test [3] was “binds” throughout.

B6: C26-TriNKET-FLT3-4G8 (bispecific antibody, V domains shown)
VH 1: B5 VH
VL 1: B2 VL 1 with S10T, V11L, G28S, A50K, Q55E, D70E, E81D, G91Y, V92G, R96I
VH 2: B4 VH 2
VL 2: B4 VL 2
notes: also called C26-TriNKET-4G8
B6: the binding result in test [4] is “binds”.

B7: ADI-29447 (antibody, V domains shown)
VH: B5 VH
VL: B5 VL with S93T
notes: also called F47
As to B7, the binding result in test [1], in test [2] and in test [3] was “binds” in each case.

B8: ADI-29425 (antibody, V domains shown)
VH: B5 VH
VL: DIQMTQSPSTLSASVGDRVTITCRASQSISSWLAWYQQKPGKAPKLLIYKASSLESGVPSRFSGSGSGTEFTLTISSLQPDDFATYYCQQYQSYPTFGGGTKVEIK
As to B8, the binding result in test [1], in test [2] and in test [3] was “binds” each time.

B9: ADI-29426 (antibody, V domains shown)
VH: B5 VH
VL: B5 VL with S30G, D92H, I95P
As for B9, the binding result in test [1], in test [2] and in test [3] was “binds” throughout.

B10: ADI-27727 (antibody, V domains shown)
VH: QVQLVQSGAEVKKPGSSVKVSCKASGGTFSSYAISWVRQAPGQGLEWMGGIIPIFGTANYAQKFQGRVTITADESTSTAYMELSSLRSEDTAVYYCARGDSSIRHAYYYYGMDVWGQGTTVTVSS
VL: not shown
For the molecule B10, the binding result in test [1], in test [2] and in test [3] was “binds” each time.
